From US20200277377A1 (WUXI BIOLOGICS SHANGHAI, published 2020)
Changes are numbered by the printed parent chain. Values belong to the binder of their own block, whether it stands above or below them.

Key:
hCTLA-4.ECD.hFc-Biotin = molecular target: T1, hCTLA-4.ECD.hFc-Biotin (human, UniProt P16410 36-161, biotinylated (sites not given)); experiment: FACS competition, hCTLA-4.ECD.hFc-Biotin on CD86-expressing CHO cells
T1 construct: extracellular domain; also called Biotinylated CTLA-4.ECD.hFc; biotinylated human CTLA4.ECD.hFc; not shown: human Fc tag (hFc)
T1 sequence (looked up): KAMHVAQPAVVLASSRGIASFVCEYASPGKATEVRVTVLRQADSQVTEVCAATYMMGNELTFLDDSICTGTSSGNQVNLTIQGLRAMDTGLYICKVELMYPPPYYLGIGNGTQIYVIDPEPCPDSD
Experimental: PE conjugated Streptavidin was purchased from eBioscience (Catalog number 12-4317).
Then the mixtures of antibody and CTLA-4 were added to the cells and incubated for 1 hour at 4° C. The cells were washed two times with 200 μL FACS buffer (DPBS containing 1% BSA). Streptavidin PE 1 to 333 diluted in FACS buffer was added to the cells and incubated at 4° C. for 1 hour. Additional washing steps were performed two times with 200 μL FACS buffer followed by centrifugation at 1500 rpm for 4 minutes at 4° C. Finally, the cells were resuspended in 100 μL FACS buffer and fluorescence values were measured by flow cytometry and analyzed by FlowJo.

4-1BB.ECD = 4-1BB.ECD (Homo sapiens (Human), UniProt Q07011 24-186); experiment: specificity ELISA on coated antigens, OD
Experimental: (§1) In the ELISA assay, the testing antibodies, isotype control antibodies were tested binding to 10 different target antigens including Factor VIII, FGFR-ECD, PD-1, CTLA-4.ECD, VEGF, HER3.ECD, OX40.ECD, 4-1BB.ECD, CD22.ECD, CD3e.ECD. A 96-well plate was coated with the individual antigens (2 μg/mL) at 4° C. overnight. After 1 hour blocking with 2% BSA in PBS, wash plate 3 times with 300 μL PBST. Testing antibodies, as well as isotype control antibodies were diluted to 10 μg/mL in PBS containing 2% BSA, then were added to the plate and incubated at room temperature for 2 hours. After 3 times washing with 300 μL PBST, HRP-conjugated goat anti-human IgG antibody (1:5000 diluted in 2% BSA) was added to the plate and incubated at room temperature for 1 hours. Finally, the plates were washed six times with 300 μL PBST. The color was developed by dispensing 100 μL of TMB substrate for 12 min, and then stopped by 100 μL of 2M HCl.

PD-1 = PD-1 (Homo sapiens (Human), UniProt Q15116 25-170); experiment: specificity ELISA on coated antigens, OD
Experimental: as §1

HER3.ECD = HER3.ECD (Homo sapiens (Human), UniProt P21860 20-643); experiment: specificity ELISA on coated antigens, OD
Experimental: as §1

CD3e.ECD = CD3e.ECD (Homo sapiens (Human), UniProt P07766 23-126); experiment: specificity ELISA on coated antigens, OD
Experimental: as §1

[1] = molecular target: T2, hCTLA4_ECD.His point mutant G146 to alanine (human, UniProt P16410 36-161); experiment: capture ELISA, alanine scan, vs silent alanine substitutions
T2 construct: extracellular domain; alanine-scan mutein, HEK293F supernatant
T2 sequence (looked up): T1 sequence (looked up) with G111A
Experimental: In order to test how the mutations affect antibody-binding, a capture ELISA was conducted. […] After interacting with the supernatant that contains quantified CTLA4 muteins, HRP conjugated anti-His antibody (1:5000; Rockland Immunochemicals, Pottstown, Pa.) was added as detection antibody. TMB was used as substance of HRP. Absorbance was normalized according to the average of control mutants. After setting an additional cutoff to the binding fold change (<0.55), the final determined epitope residues were identified.

human CTLA-4.ECD-6×His = molecular target: T3, human CTLA-4.ECD-6×His (human, UniProt P16410 36-161); experiment: capture ELISA: W3162-1.154.8-z35 captured on anti-human Fc, hCTLA4-His supernatant titrated (ng/ml), HRP-anti-His [C]
T3 construct: extracellular domain; also called WBP316.hCTLA-4.ECD-6×His; hCTLA4-His (WT)
T3 sequence: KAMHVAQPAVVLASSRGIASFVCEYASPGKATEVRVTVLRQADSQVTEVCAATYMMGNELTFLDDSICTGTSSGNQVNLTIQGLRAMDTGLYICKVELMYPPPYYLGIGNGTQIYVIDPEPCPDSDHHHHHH

human CTLA-4.ECD.hFc = molecular target: T4, human CTLA-4.ECD.hFc (human, UniProt P16410 36-161); experiment: competition ELISA, coated human CTLA-4.ECD.hFc, competitor CD86-6×His
T4 construct: extracellular domain; also called hCTLA-4.ECD.hFc; not shown: human Fc tag (hFc)
T4 sequence (looked up): T1 sequence (looked up)
Experimental: Plates were coated with human CTLA-4.ECD.hFc (0.5 μg/mL) at 4° C. for 16-20 hours. […] After washing three times with PBS containing 0.05% Tween 20, biotinylated anti-His tag antibody was 1:2000 diluted and added. The plates were incubated at room temperature for 1 hour. The bound ligands were detected by HRP conjugated streptavidin (1:20000). The color was developed by dispensing 100 μL of TMB substrate for 8 mins, and then stopped by 100 μL of 2N HCl.

PD-1, sequence (Q15116 25-170 limits assumed): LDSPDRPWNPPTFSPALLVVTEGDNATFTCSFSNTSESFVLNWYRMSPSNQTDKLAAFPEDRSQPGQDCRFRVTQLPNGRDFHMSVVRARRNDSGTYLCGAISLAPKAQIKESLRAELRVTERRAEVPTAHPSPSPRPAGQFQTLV
CD3e.ECD, sequence (P07766 23-126 limits assumed): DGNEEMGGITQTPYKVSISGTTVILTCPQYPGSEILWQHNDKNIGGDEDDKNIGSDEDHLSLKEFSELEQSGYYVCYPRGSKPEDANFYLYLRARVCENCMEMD
HER3.ECD, sequence (P21860 20-643 limits assumed): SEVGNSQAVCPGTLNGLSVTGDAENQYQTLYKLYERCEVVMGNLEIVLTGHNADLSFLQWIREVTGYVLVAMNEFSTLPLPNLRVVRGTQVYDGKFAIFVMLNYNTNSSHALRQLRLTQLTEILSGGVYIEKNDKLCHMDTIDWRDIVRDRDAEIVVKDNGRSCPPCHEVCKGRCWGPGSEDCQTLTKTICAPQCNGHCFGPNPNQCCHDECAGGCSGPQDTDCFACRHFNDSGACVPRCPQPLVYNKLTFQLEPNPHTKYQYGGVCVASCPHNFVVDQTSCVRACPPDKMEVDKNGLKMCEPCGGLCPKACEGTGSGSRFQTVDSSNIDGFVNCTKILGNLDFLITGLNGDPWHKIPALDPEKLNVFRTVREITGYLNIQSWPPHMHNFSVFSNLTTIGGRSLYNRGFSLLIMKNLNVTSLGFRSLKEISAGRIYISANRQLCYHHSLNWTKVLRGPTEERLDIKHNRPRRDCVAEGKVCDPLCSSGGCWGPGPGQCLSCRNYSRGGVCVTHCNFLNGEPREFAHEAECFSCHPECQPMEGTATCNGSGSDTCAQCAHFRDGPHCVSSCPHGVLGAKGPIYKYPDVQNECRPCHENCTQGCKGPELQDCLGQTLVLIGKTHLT

IC50 (hCTLA-4.ECD.hFc-Biotin): 0.28 nM
binding result (4-1BB.ECD): no binding (tested: 10 ug/mL)
binding result (PD-1): no binding (tested: 10 ug/mL)
binding result (HER3.ECD): no binding (tested: 10 ug/mL)
binding result (CD3e.ECD): no binding (tested: 10 ug/mL)
Fold change [1]: 0.201 fold
EC50 (read off the curve) (human CTLA-4.ECD-6×His): ~3 ng/mL
IC50 (human CTLA-4.ECD.hFc): 0.5 nM
B1: W3162_1.154.8-z35-uAb.IgG1K (antibody, V domains shown)
VH: QVQLVQSGAEVKKPGSSVKVSCKASGYTFTNYFMNWVRQAPGQGLEWMGRVDPEQGRADYAEKFKKRVTITADKSTSTAYMELSSLRSEDTAVYYCARRAMDNYGFAYWGQGTLVTVSS
VL: EIVLTQSPDFQSVTPKEKVTITCSANSALSYMYWYQQKPDQSPKLWVHGTSNLASGVPSRFSGSGSGTDFTLTINSLEAEDAATYYCHHWSNTQWTFGGGTKVEIK
notes: Humanized; label says IgG1K

IC50 (hCTLA-4.ECD.hFc-Biotin): 5.15 nM
binding result (4-1BB.ECD): no binding (tested: 10 ug/mL)
binding result (PD-1): no binding (tested: 10 ug/mL)
binding result (HER3.ECD): no binding (tested: 10 ug/mL)
binding result (CD3e.ECD): no binding (tested: 10 ug/mL)
Fold change [1]: 0.166 fold
IC50 (human CTLA-4.ECD.hFc): 0.71 nM
B2: W3162-1.146.19-z12-uAb.IgG1K (antibody, V domains shown)
VH: QVQLQESGPGLVKPSETLSLTCSVTYHTITSGYDWTWIRKPPGKGMEWIGYISYSGNTNYNPSLKSRVTISRDTSKNQFFLKLSSVTAADTAVYYCASMMVPHYYVMDAWGQGTLVTVSS
VL: DIVMTQTPLSLSVTPGQPASISCRSSQSLLNSDGNTYLYWYLQKPGQSPQLLIYLVSKLGSGVPNRFSGSGSGTDFTLKISRVEAEDVGVYYCVQGTHDPWTFGGGTKVEIK
notes: Humanized; label says IgG1K
